Series [1] concerns the target TbGMPR∆CBS (Trypanosoma brucei GMP reductase lacking the CBS domain) (Trypanosoma brucei (ILTat 1.4)). Kind of series: SEC-SAXS. A general note: In gel filtration, larger molecules generally elute earlier.
Series [2] addresses T1, TbGMPR (guanosine 5′-monophosphate reductase) (Trypanosoma brucei, UniProt Q57ZS7).
T1 sequence (Q57ZS7 1-491): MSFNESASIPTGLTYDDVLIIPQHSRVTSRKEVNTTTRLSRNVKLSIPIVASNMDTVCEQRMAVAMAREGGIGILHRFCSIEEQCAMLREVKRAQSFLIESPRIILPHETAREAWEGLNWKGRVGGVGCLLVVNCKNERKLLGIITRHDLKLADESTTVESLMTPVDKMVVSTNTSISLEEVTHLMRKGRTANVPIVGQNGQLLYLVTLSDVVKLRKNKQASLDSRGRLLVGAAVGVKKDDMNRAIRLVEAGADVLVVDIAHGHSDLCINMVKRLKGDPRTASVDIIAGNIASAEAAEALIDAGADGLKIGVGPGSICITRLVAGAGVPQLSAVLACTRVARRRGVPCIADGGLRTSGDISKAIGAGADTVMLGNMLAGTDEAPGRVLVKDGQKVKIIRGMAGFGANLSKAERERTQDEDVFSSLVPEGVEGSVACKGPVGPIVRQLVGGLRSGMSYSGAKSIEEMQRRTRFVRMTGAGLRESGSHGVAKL
Kind of series: biochemical. Also on record: gene Tb05.1P6.110.

In series [3] the target is T2, TbGMPR (guanosine 5′-monophosphate reductase) (Trypanosoma brucei, UniProt Q57ZS7, W115R).
T2 construct: gene Tb05.1P6.110; full-length, C-terminal histidine-tag
In words: tryptophan fluorescence quenching. It is filed as binding.

Series [4] addresses T1, TbGMPR (guanosine 5′-monophosphate reductase). Kind of series: co-crystal structure at […] Å; activation of purified enzyme (EC50). It is filed as biochemical. Further details: gene Tb05.1P6.110; wild-type, C-terminal histidine-tag.
For series [5], the target named is T2, TbGMPR (guanosine 5′-monophosphate reductase). Kind of series: tryptophan fluorescence quenching (no Kd obtained). It is filed as binding.
Series [6] concerns the target Trypanosoma brucei guanosine 5'-monophosphate reductase, wild type (Trypanosoma brucei (ILTat 1.4)). In words: SEC-SAXS; no ligand; 4 or 12 mg/mL protein in 50 mM Tris-HCl pH 7.8, 0.5 M KCl, 3 mM EDTA, 1 mM DTT; Shodex KW403-4F; 20 °C; mass from volume of correlation, fractions of tetramer and octamers fitted by OLIGOMER
Series [7] has the same target. Kind of series: SEC-SAXS; with 10 mM ATP; 4 or 12 mg/mL protein in 50 mM Tris-HCl pH 7.8, 0.5 M KCl, 3 mM EDTA, 1 mM DTT; 20 °C; fractions fitted by OLIGOMER; octamer to tetramers.
Series [8] shares this target. In words: SEC-SAXS; with 10 mM GMP; 4 or 12 mg/mL protein in 50 mM Tris-HCl pH 7.8, 0.5 M KCl, 3 mM EDTA, 1 mM DTT; 20 °C; fractions fitted by OLIGOMER
Series [9] shares this target. Kind of series: crystal structure; wild-type TbGMPR co-crystallised with up to 1 mM GTP (TbGMPR/GTP), 2.50 Å; 20 °C.
Series [10] shares this target. In words: SEC-SAXS; with 10 mM GTP; 4 or 12 mg/mL protein in 50 mM Tris-HCl pH 7.8, 0.5 M KCl, 3 mM EDTA, 1 mM DTT; 20 °C; fractions fitted by OLIGOMER
For series [11], the target named is TbGMPR C318A (inactive mutant of Trypanosoma brucei GMP reductase) (Trypanosoma brucei (ILTat 1.4)). In words: crystal structure; TbGMPR C318A without ligand (C318A apo), 2.80 Å; sitting drop, 4 °C; oligomer from crystal packing by PISA.
Series [12] shares this target. In words: crystal structure; TbGMPR C318A co-crystallised with up to 3 mM GMP (C318A/GMP), 1.90 Å; 4 °C.
Substrate in the series “purified protein”: Nc1nc2c(ncn2[C@@H]2O[C@H](COP(=O)(O)O)[C@@H](O)[C@H]2O)c(=O)[nH]1
Kind of series: purified protein. The series is classed as biochemical, Trypanosoma brucei. Particulars: NADPH active site; positive cooperativity via CBS domain.

Like-named read-outs stand apart in the source and are kept apart here.

As a reminder, the stoichiometry N is a count of units in the complex or per binding partner. The term EC50 denotes the concentration at which the effect is half-maximal. As usually defined, the Kd is the equilibrium constant for the complex coming apart. As usually defined, the kcat is the number of substrate molecules converted per active site and unit of time at saturation. As usually defined, the kcat/Km is the turnover number divided by the Michaelis constant.

In the case of “TbGMPR∆CBS (Trypanosoma brucei GMP reductase lacking the CBS domain) (enzyme)”, in series [1], the stoichiometry N came to 4.
In turn, `Nc1ncnc2c1ncn2[C@@H]1O[C@H](COP(=O)(O)OP(=O)(O)OP(=O)(O)O)[C@@H](O)[C@H]1O` [ATP] registered an EC50 in series [2] of 160 µM. In series [3], this molecule came in with a Kd of 194 ± 45 µM.
For the molecule `Nc1nc2c(ncn2[C@@H]2O[C@H](COP(=O)(O)OP(=O)(O)OP(=O)(O)O)[C@@H](O)[C@H]2O)c(=O)[nH]1` [GTP], the Kd in [3] (read-out: Kd) amounted to 6.75 ± 0.58 µM. Moreover, it took 4.8 µM to reach a half-maximal effect in series [4] (EC50).
As for `Nc1nc2c(ncn2[C@@H]2O[C@H](COP(=O)(O)O)[C@@H](O)[C@H]2O)c(=O)[nH]1` [GMP], the “tryptophan fluorescence quenching (no Kd obtained)” value in series [5] is given as “blue-shifting of the emission spectra of the protein with either GTP or GMP, but not with ATP”.
Take “Trypanosoma brucei guanosine 5'-monophosphate reductase, wild type (enzyme)”: the Octamer, relaxed (%) in series [6] came to 53.2%; in series [7], 28%; in series [8], 0%; in [10], 0%. The Octamer, twisted (%) in series [6] is 46.8%; in [7], 11.2%; in series [8], 97.8%; in series [10], 100%. Besides, the Tetramer (%) in series [6] came to 0%; in series [7], 60.8%; in series [8], 2.2%; in [10], 0%. The stoichiometry N in series [6] and in series [9] was 8 each time.
For the molecule “TbGMPR C318A (inactive mutant of Trypanosoma brucei GMP reductase) (enzyme)”, the stoichiometry N in series [11] and in series [12] was 8 throughout.

B1: TbGMPR (guanosine 5′-monophosphate reductase) (Trypanosoma brucei brucei TREU927) (protein)
chain: MSFNESASIPTGLTYDDVLIIPQHSRVTSRKEVNTTTRLSRNVKLSIPIVASNMDTVCEQRMAVAMAREGGIGILHRFCSIEEQCAMLREVKRAQSFLIESPRIILPHETAREAWEGLNWKGRVGGVGCLLVVNCKNERKLLGIITRHDLKLADESTTVESLMTPVDKMVVSTNTSISLEEVTHLMRKGRTANVPIVGQNGQLLYLVTLSDVVKLRKNKQASLDSRGRLLVGAAVGVKKDDMNRAIRLVEAGADVLVVDIAHGHSDLCINMVKRLKGDPRTASVDIIAGNIASAEAAEALIDAGADGLKIGVGPGSICITRLVAGAGVPQLSAVLACTRVARRRGVPCIADGGLRTSGDISKAIGAGADTVMLGNMLAGTDEAPGRVLVKDGQKVKIIRGMAGFGANLSKAERERTQDEDVFSSLVPEGVEGSVACKGPVGPIVRQLVGGLRSGMSYSGAKSIEEMQRRTRFVRMTGAGLRESGSHGVAKL
notes: wild-type, C-terminal histidine-tag
B1: in “purified protein”, the K0.5 was found to be 184 ± 3 µM, the kcat was found to be 0.2783 ± 0.0025 s⁻¹ and the kcat/Km worked out at 1520 M⁻¹ s⁻¹.
